The record followed here is US7919464B2, “Use of a peptide that interacts with αvβ3 integrin of endothelial cell” (Kyungpook National University Industry-Academic Cooperation …, priority 2003, dated 2011).

One experiment relates to HUVECs. The experiment in a line: HUVECs adhesion to plates coated with βig-h3, its fas-1 domains or mutants. The conditions noted are these: 10 μg/ml protein coated on plate; attached cells by absorbance at 405 nm; control BSA. Format: cell-based, human. The protocol:
Cell adhesion assay was performed according to the method described by Kim, J.-E. et al., J. Biol. Chem., 277:4615946165, 2002. For this purpose, 10 μg/ml of each of the recombinant proteins (βig-h3 His-β-b, βig-h3 D-I, βig-h3 D-II, βig-h3 D-III and βig-h3 D-IV) prepared in Example 1 was placed into a flat-bottomed 96-well ELISA (enzyme-linked immunosorbent assay) plate (Costar, Corning Inc., NY) and then incubated overnight at 4° C., to coat the surface of the plate. As a control, 2% BSA was coated on the plate. Then, the plate was treated with PBS (phosphate-buffered saline) containing 2% BSA, and blocked at room temperature for one hour.
Meanwhile, HUVECs (human umbilical vein endothelial cells; Clonetics, San Diego, Calif.) were incubated in EGM medium (Clonetics, San Diego, Calif.) containing 2% FBS (Fetal Bovine Serum) under a condition of 37° C. and 5% CO2. The incubated cells were suspended in medium at a density of 3×10^5 cells/ml, and 0.1 ml of the cell suspension was added to each well of the plate. Next, the cells were incubated at 37° C. for 30 minutes and washed one time with PBS buffer to remove cells which had not been attached to the plate. Attached cells were added with 50 mM citrate buffer (pH 5.0) containing 3.75 mM p-nitrophenyl-N-acetyl β-D-glycosaminide and 0.25% Triton X-100, and incubated at 37° C. for one hour. Thereafter, 50 mM glycine buffer (pH 10.4) containing 5 mM EDTA was added to block the activity of the enzyme. The absorbance was measured at a 405-nm in a Bio-Rad model 550 microplate reader. Here, the higher the number of cells adhered to the plate, the higher the absorbance.
Each of the deletion mutants was generated by PCR using a cDNA template encoding the fourth fas-1 domain (SEQ ID NO: 5) (Kim, J.-E. et al., J. Biol. Chem., 275:30907-30915, 2000). Each of the PCR-amplified DNA fragments was cloned into the EcoRV/Xhol sites of the pET-29b(+) vector (Novagen; Madison, Wis.). The mutations were confirmed by sequence analysis, and the deletion mutants were expressed and purified according to a prior method (Kim, J.-E., et al., J. Cell. Biochem., 77:169-178, 2000). Thereafter, the cell adhesion activity of each of the deletion mutants was tested in the same manner as in Example 2.
Previously, the present inventors reported that an YH motif, which contains tyrosine-histidine residues highly conserved in the fragment corresponding to amino acids 548-614 of SEQ ID NO: 1, and several leucine and isoleucine residues adjacent to the tyrosine-histidine residues, binds to the αvβ5 integrin (Kim, J.-E., et al., J. Biol. Chem., 277:46159-46165, 2002). Thus, the present inventors suspected that the YH motif may also interact with the αvβ3 integrin to mediate endothelial cell adhesion. For this reason, in the present invention, the tyrosine-histidine residues conserved in the fas-1 domains, and/or the leucine and isolucine residues adjacent to the tyrosine-histidine residues, were substituted in various combinations by alanine or serine (Kim, J.-E., et al., J. Biol. Chem. 277:4615946165, 2002)(see FIG. 4b). The amino acid sequences of the prepared YH motif mutants are shown in SEQ ID NO: 17 to SEQ ID NO: 22. The mutations were confirmed by sequence analysis. Then, the substitution mutants were expressed and purified according to a known method (Kim, J.-E., et al., J. Cell. Biochem., 77:169-178, 2000). The substitution mutants were tested for their cell adhesion activity according to the same manner as in Example 2.

Experiment [1] relates to β3/293 cells (HEK293 cells transfected with human β3 integrin expression vector). The experiment in a line: Adhesion of β3/293 cells to βig-h3 and its inhibition. Format: cell-based. The conditions noted are these: plate coated with βig-h3. The protocol: To construct a human β3 integrin expression vector, RT-PCR was performed using a human placenta poly(A)^+ RNA as a template, thereby generating a 2.4-kb β3 cDNA (Chandrika, S. K. et al., J. Biol. Chem., 272:16390-16397, 1997). The amplified β3 cDNA was digested with HindIII/XbaI, and then cloned into the pcDNA3 vector (Invitrogen). The resulting vector was named “β3/pcDNA3”. Then, 1 μg of the β3/pcDNA3 vector was introduced into HEK293 cells (ATCC, catalog No. CRL 1573) using lipofectamin (Gibco). A control was introduced with a pcDNA3 vector containing no human β3 cDNA. Since all the vectors contain a G418 selection marker, the stable transfected cells were screened using 1 mg/ml of G418. The cell transfected with the β3/pcDNA3 vector was named “β3/293”, and the cell transfected with the pcDNA3 vector (control) was named “pc/293”. Each of the screened transfectants was incubated in DMEM (Dulbecco's Modified Eagle Medium) containing 10% FBS, streptomycin and penicillin. Then, cell adhesion assay was performed in the same manner as in Example 2.
In the present invention, to further confirm that βig-h3 mediates endothelial cell adhesion through the αvβ3 integrin, cell adhesion assay using antibodies that block the function of integrins was performed in the same manner as in Example 3-1. […]

B1: βig-h3: recombinant human βig-h3 protein that expresses all of four fas-1 domains; biotinylated form used in binding assay (protein)
chain: YQRKICGKSTVISYECCPGYEKVPGEKGCPAALPLSNLYETLGVVGSTTTQLYTDRTEKLRPEMEGPGSFTIFAPSNEAWASLPAEVLDSLVSNVNIELLNALRYHMVGRRVLTDELKHGMTLTSMYQNSNIQIHHYPNGIVTVNCARLLKADHHATNGVVHLIDKVISTITNNIQQIIEIEDTFETLRAAVAASGLNTMLEGNGQYTLLAPTNEAFEKIPSETLNRILGDPEALRDLLNNHILKSAMCAEAIVAGLSVETLEGTTLEVGCSGDMLTINGKAIISNKDILATNGVIHYIDELLIPDSAKTLFELAAESDVSTAIDLFRQAGLGNHLSGSERLTLLAPLNSVFKDGTPPIDAHTRNLLRNHIIKDQLASKYLYHGQTLETLGGKKLRVFVYRNSLCIENSCIAAHDKRGRYGTLFTMDRVLTPPMGTVMDVLKGDNRFSMLVAAIQSAGLTETLNREGVYTVFAPTNEAFRALPPRERSRLLGDAKELANILKYHIGDEILVSGGIGALVRLKSLQGDKLEVSLKNNVVSVNKEPVAEPDIMATNGVVHVITNVLQPPANRPQERGDELADSALEI
In the case of B1, in the experiment with HUVECs, the “endothelial cell (HUVECs) adhesion activity” value is “mediated the adhesion of endothelial cells”. Also, the “adhesion of β3/293 cells to βig-h3” value in experiment [1] is “strongly adhered”.
